How the values were obtained:
MS2 coat protein [1] = experiment: apparent KD of MS2 coat protein, switch OFF state (with FMN for OFF switches, without FMN for ON switches); designed switch direction (-1 OFF switch, 1 ON switch): -1; higher = weaker reporter binding; settings: FMN input: 0 or 200 uM; Eterna round: R93 (includes R88 designs)
In short: (§1)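 SNAP-549-labelled MS2 coat protein was titrated onto designed RNA switches that had been transcribed on-chip from Illumina sequencing clusters. Amounts doubled from 0.7 or 1.5 nM to 3 µM in 100 mM Tris-HCl pH 7.5, 80 mM KCl, 4 mM MgCl2, with constant ligand or without. Apparent KD is the median per design of normalised cluster binding-curve fits.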

MS2 coat protein [2] = experiment: apparent KD of MS2 coat protein, switch ON state; designed switch direction (-1 OFF switch, 1 ON switch): -1; higher = weaker reporter binding; settings: FMN input: 0 or 200 uM; Eterna round: R93 (includes R88 designs)
In short: as §1

In the case of “AGAAAGUCAGGAUAUGUACAAAAUAAAAUAAAAAUAAAAGUACAGAAGGGACAUGAGGAUCACCCAUGUAAAGA [Mat - Exclusion 4 - Mayanna - D121]”, the “apparent KD of MS2 coat protein” value (MS2 coat protein [1]) is reported as 52.4 nM and the “apparent KD of MS2 coat protein” value (MS2 coat protein [2]) is reported as 50.2 nM.
For “AACAGGUGAGGAUAUCUGGAUAGGAAAAAGAAAACCUAUCCAGAGAAGGCACAUGAGGAUCACCCAUGUAAAAA [JL cataway mod 8]”, the “apparent KD of MS2 coat protein” value (MS2 coat protein [1]) was 96.2 nM and the “apparent KD of MS2 coat protein” value (MS2 coat protein [2]) was 78.5 nM.
In the case of “CUCUUGUCAGGAUAUCUAAGAAAAGAAAAGAAAGAAAAGAAAGAGAAGGGACAUGAGGAUCACCCAUGUAAGAA [EteRNA is fun!]”, the “apparent KD of MS2 coat protein” value (MS2 coat protein [1]) is reported as 42.4 nM and the “apparent KD of MS2 coat protein” value (MS2 coat protein [2]) is reported as 46.3 nM.
For “AGUAUCACAGGAUAUACAUAGGUGAAAAAAGUAAAUCCACUACAUGAGGAUCACCCAUGUAGAAGGGUGAUACA [Ex2 Design 177: Random 4B]”, the “apparent KD of MS2 coat protein” value (MS2 coat protein [1]) was 62.2 nM and the “apparent KD of MS2 coat protein” value (MS2 coat protein [2]) was 69.9 nM.
For “AGCUAGAGAGGAUAUACAUGGAAAAAAAAAGUCUGAUCCCUACAUGAGGAUCACCCAUGUAGAAGGCUCUGGCA [Ex2 Design 158: Sub-opt 22]”, the “apparent KD of MS2 coat protein” value (MS2 coat protein [1]) was 13 nM and the “apparent KD of MS2 coat protein” value (MS2 coat protein [2]) was 23.5 nM.
In the case of “ACUAACAGAGGAUAUACUAACAAACCUCAAACAUACAUCAAACAUGAGGAUCACCCAUGUAGAAGGCUGAAACU [JR_Exc002_Sub005]”, the “apparent KD of MS2 coat protein” value (MS2 coat protein [1]) is reported as 27 nM and the “apparent KD of MS2 coat protein” value (MS2 coat protein [2]) is reported as 26.7 nM.
For “AAUAAUGGAGGAUAUACUAAAGAAAUGAAAAGAAAUAAAGAACAUGAGGAUCACCCAUGUAGAAGGCCAAAUAA [Khamure]”, the “apparent KD of MS2 coat protein” value (MS2 coat protein [1]) was 27.8 nM and the “apparent KD of MS2 coat protein” value (MS2 coat protein [2]) was 26 nM.
In the case of “UAUAGACAUGAGGAUCACCCAUGUGAGGAUAUCGGUGACUACAGGACAUCACGUACAAUGAGAAGGCACAGAAA [JR_Exc001_Sub017]”, the “apparent KD of MS2 coat protein” value (MS2 coat protein [1]) is reported as 44.2 nM and the “apparent KD of MS2 coat protein” value (MS2 coat protein [2]) is reported as 40.3 nM.
In the case of “AAAAAGAGAGGAUAUACAUGAGGAUCACCCAUGUAAAAAAGAAGAAAGAAAAAAAAAUGUAGAAGGCUCAAAAA ['Exclusion 3']”, the “apparent KD of MS2 coat protein” value (MS2 coat protein [1]) is reported as 34.3 nM and the “apparent KD of MS2 coat protein” value (MS2 coat protein [2]) is reported as 35.9 nM.
With “AAAAAGGUAGGAUAUACAUGAGGAUCACCCAUGUGAAAAGAAAAUAAGAAAAGAAAGUGUAGAAGGACCAAAAA [JL JSci Mod In the Red]” the “apparent KD of MS2 coat protein” value (MS2 coat protein [1]) was 44.1 nM and the “apparent KD of MS2 coat protein” value (MS2 coat protein [2]) was 33 nM.
For “AGAAAACAUGAGGAUCACCCAUGUGAGGAUAUGUAAAAGAAAAGAAAAGAAAGAAGAAACAGAAGGCACAAGAA [Nynetjer]”, the “apparent KD of MS2 coat protein” value (MS2 coat protein [1]) was 45.6 nM and the “apparent KD of MS2 coat protein” value (MS2 coat protein [2]) was 24.9 nM.
“CUCAAGUAAGGAUAUGUAAGAAAAGAAGAGAAAGAAAAGAAACAGAAGGUACAUGAGGAUCACCCAUGUAAGAA [EteRNA is fun!]” was tested, and the “apparent KD of MS2 coat protein” value (MS2 coat protein [1]) was 28.2 nM and the “apparent KD of MS2 coat protein” value (MS2 coat protein [2]) was 30.4 nM.
For “ACUUAUGAAGGAUAUACUAGCAACAUGCACUCAACACACACACAUGAGGAUCACCCAUGUAGAAGGUCAAACAU [JR_Exc002_Sub1206]”, the “apparent KD of MS2 coat protein” value (MS2 coat protein [1]) was 19.7 nM and the “apparent KD of MS2 coat protein” value (MS2 coat protein [2]) was 23.2 nM.
In the case of “AAAAAGGUAGGAUAUGCAAAAAAUAAUUUAAAAAAAAAAAAACAUGAGGAUCACCCAUGUAGAAGGACCAAAAA [Design 2.0]”, the “apparent KD of MS2 coat protein” value (MS2 coat protein [1]) is reported as 28.8 nM and the “apparent KD of MS2 coat protein” value (MS2 coat protein [2]) is reported as 25.9 nM.
For “AAGAACUCAGGAUAUACAUGAGGAUCACCCAUGUAAAAGAAAGAAAAGGGAAAGAAAAGUAGAAGGGAGAAGAA [Neferkheperure-waenre Amenhotep IV]”, the “apparent KD of MS2 coat protein” value (MS2 coat protein [1]) was 36.2 nM and the “apparent KD of MS2 coat protein” value (MS2 coat protein [2]) was 32.7 nM.
“AGAAAGUCAGGAUAUACGAAAGUGCGAAAGCACAAAAGGGAACAUGAGGAUCACCCAUGUAGAAGGGACAAGAA [Diamond 77]” was tested, and the “apparent KD of MS2 coat protein” value (MS2 coat protein [1]) was 170 nM and the “apparent KD of MS2 coat protein” value (MS2 coat protein [2]) was 91.4 nM.
“AAUAACAGAGGAUAUACAAAAAUAAAAGGAAACAAAAGAAAACAUGAGGAUCACCCAUGUAGAAGGCUGAAUAA [Tetraloop BlockHead]” was tested, and the “apparent KD of MS2 coat protein” value (MS2 coat protein [1]) was 20.3 nM and the “apparent KD of MS2 coat protein” value (MS2 coat protein [2]) was 19.4 nM.
For “AACUGACAUGAGGAUCACCCAUGUCAGGAUAUGAUUUGACGAAAAAAAACACGUCAUAUCAGAAGGGACAUGGA [Design 85: Sub-opt X]”, the “apparent KD of MS2 coat protein” value (MS2 coat protein [1]) was 39.5 nM and the “apparent KD of MS2 coat protein” value (MS2 coat protein [2]) was 23.7 nM.
With “AAAAAGUCAGGAUAUCUGGAUAGGAAAAAGAAAACCUAUCCAGAGAAGGGACAUGAGGAUCACCCAUGUAAAAA [JL cataway mod 1]” the “apparent KD of MS2 coat protein” value (MS2 coat protein [1]) was 42.4 nM and the “apparent KD of MS2 coat protein” value (MS2 coat protein [2]) was 49.2 nM.
With “AAAAAACAUGAGGAUCACCCAUGUAAGGAUAUGCUAGGAAAAAGAAAAAUAAAAACUAGCAGAAGGUACAUGAA [JL wbt mod 11]” the “apparent KD of MS2 coat protein” value (MS2 coat protein [1]) was 113 nM and the “apparent KD of MS2 coat protein” value (MS2 coat protein [2]) was 33.2 nM.
With “AAAUGACAUGAGGAUCACCCAUGUCAGGAUAUGACUUGAAAAAAAAAAAAAAAACAUGUCAGAAGGGACAUGGA [Design 51: Sub-opt G]” the “apparent KD of MS2 coat protein” value (MS2 coat protein [1]) was 22.2 nM and the “apparent KD of MS2 coat protein” value (MS2 coat protein [2]) was 22.8 nM.
For “GAAGAACAUGAGGAUCACCCAUGUGAGGAUAUACAGAAUGGAAUAAAAUAACAAGAAAGUAGAAGGCACAAGAA [Ex 1 May 39]”, the “apparent KD of MS2 coat protein” value (MS2 coat protein [1]) was 38.4 nM and the “apparent KD of MS2 coat protein” value (MS2 coat protein [2]) was 32.1 nM.
“AGAAUACAUGAGGAUCACCCAUGUGAGGAUAUGUGAAGAAAAAGAAAAGAAAAGAAACACAGAAGGCACAAAAG [EX 1 May 17]” was tested, and the “apparent KD of MS2 coat protein” value (MS2 coat protein [1]) was 69.3 nM and the “apparent KD of MS2 coat protein” value (MS2 coat protein [2]) was 29.7 nM.
With “AUAGGCCUAGGAUAUACAUGAGGAUCACCCAUGUAAAUAAAUCGAUCAAAAUAAACGUGUAGAAGGAGGAAUAA [JR_Exc003_Sub205]” the “apparent KD of MS2 coat protein” value (MS2 coat protein [1]) was 38.3 nM and the “apparent KD of MS2 coat protein” value (MS2 coat protein [2]) was 33.5 nM.
With “AAUAAGUGAGGAUAUACUAAAGAAAUGAAAAGAAAUAAAGAACAUGAGGAUCACCCAUGUAGAAGGCACAAUAA [Sekheperenre]” the “apparent KD of MS2 coat protein” value (MS2 coat protein [1]) was 24.5 nM and the “apparent KD of MS2 coat protein” value (MS2 coat protein [2]) was 24.4 nM.
With “AGGAAACAUGAGGAUCACCCAUGUGAGGAUAUUUGAAAGAAAAGAAAAGAAAGAAGAAGAAGAAGGCACAAGAA [Merneith]” the “apparent KD of MS2 coat protein” value (MS2 coat protein [1]) was 20.5 nM and the “apparent KD of MS2 coat protein” value (MS2 coat protein [2]) was 17.6 nM.
In the case of “AGCUAGCGAGGAUAUACGAACAUGUCAAAAGACGUGAAGGGACAUGAGGAUCACCCAUGUAGAAGGCGCUAGCA [JL 74% mod 5]”, the “apparent KD of MS2 coat protein” value (MS2 coat protein [1]) is reported as 144 nM and the “apparent KD of MS2 coat protein” value (MS2 coat protein [2]) is reported as 41.1 nM.
In the case of “AGCUAGUCAGGAUAUACGCAAACGAACGAAGCUGAGAAGGGACAUGAGGAUCACCCAUGUAGAAGGGACUAGCA [Diamond 32]”, the “apparent KD of MS2 coat protein” value (MS2 coat protein [1]) is reported as 55.6 nM and the “apparent KD of MS2 coat protein” value (MS2 coat protein [2]) is reported as 25.3 nM.
In the case of “AGAAAGUCAGGAUAUGUGGAAAAAAUAAAAAAAAUAAAAACACAGAAGGGACAUGAGGAUCACCCAUGUUAAGA [Mat - Exclusion 4 - Mayanna - D139]”, the “apparent KD of MS2 coat protein” value (MS2 coat protein [1]) is reported as 30.3 nM and the “apparent KD of MS2 coat protein” value (MS2 coat protein [2]) is reported as 53.4 nM.
In the case of “AAAAAACAUGAGGAUCACCCAUGUGAGGAUAUUGGUAUUGAGGGUAUAAUCUCAAUAGCGAGAAGGCGCAUAAA [Brourd 613 Mod 14 - Jieux - Exclusion 1]”, the “apparent KD of MS2 coat protein” value (MS2 coat protein [1]) is reported as 45.3 nM and the “apparent KD of MS2 coat protein” value (MS2 coat protein [2]) is reported as 31.7 nM.
“AAGAAGUGAGGAUAUUCGGAUAGGAAAACGAAAACCUAUCCGAAGAAGGCACAUGAGGAUCACCCAUGUAAAAA [Mat - Exaclusion 4 - Eli mod - D41]” was tested, and the “apparent KD of MS2 coat protein” value (MS2 coat protein [1]) was 54.3 nM and the “apparent KD of MS2 coat protein” value (MS2 coat protein [2]) was 36.7 nM.
With “UCCUCACAUGAGGAUCACCCAUGUGAGGAUAUGUACAUCAGGAAAAAAAAACUGAUGUACAGAAGGCACAUGGA [Design 9: Super Stable G-C 2]” the “apparent KD of MS2 coat protein” value (MS2 coat protein [1]) was 11.2 nM and the “apparent KD of MS2 coat protein” value (MS2 coat protein [2]) was 15.9 nM.
With “AAGAAAGGAGGAUAUACAAGAAAGAAAGAAAAGAAAAGAAAACAUGAGGAUCACCCAUGUAGAAGGCCUUAGAA [EteRNA is fun!]” the “apparent KD of MS2 coat protein” value (MS2 coat protein [1]) was 17.8 nM and the “apparent KD of MS2 coat protein” value (MS2 coat protein [2]) was 26.9 nM.
With “AAGUUGGGAGGAUAUAUAUGGACACACAUUGGUGUAGAACUACAUGAGGAUCACCCAUGUAGAAGGCCCAAAUA [AJ 57]” the “apparent KD of MS2 coat protein” value (MS2 coat protein [1]) was 33.1 nM and the “apparent KD of MS2 coat protein” value (MS2 coat protein [2]) was 20.3 nM.
